Ten molecules from patent publication US20110172153A1 (GENERAL HOSPITAL, published 2011) can be followed below.

The target in experiment [1] is T1, human parathyroid hormone receptor (PTHR) (human, UniProt Q03431 27-593).
T1 construct: Assayed in membranes of HKRK-B7 cells or of transiently transfected COS-7 cells, or on intact HKRK-B7/HKRK-B64/COS-7 cells; RG = co-transfected with negative-dominant Galpha-s; R0 = receptor alone plus GTPgammaS; also called hPTHR; human PTH receptor
T1 sequence: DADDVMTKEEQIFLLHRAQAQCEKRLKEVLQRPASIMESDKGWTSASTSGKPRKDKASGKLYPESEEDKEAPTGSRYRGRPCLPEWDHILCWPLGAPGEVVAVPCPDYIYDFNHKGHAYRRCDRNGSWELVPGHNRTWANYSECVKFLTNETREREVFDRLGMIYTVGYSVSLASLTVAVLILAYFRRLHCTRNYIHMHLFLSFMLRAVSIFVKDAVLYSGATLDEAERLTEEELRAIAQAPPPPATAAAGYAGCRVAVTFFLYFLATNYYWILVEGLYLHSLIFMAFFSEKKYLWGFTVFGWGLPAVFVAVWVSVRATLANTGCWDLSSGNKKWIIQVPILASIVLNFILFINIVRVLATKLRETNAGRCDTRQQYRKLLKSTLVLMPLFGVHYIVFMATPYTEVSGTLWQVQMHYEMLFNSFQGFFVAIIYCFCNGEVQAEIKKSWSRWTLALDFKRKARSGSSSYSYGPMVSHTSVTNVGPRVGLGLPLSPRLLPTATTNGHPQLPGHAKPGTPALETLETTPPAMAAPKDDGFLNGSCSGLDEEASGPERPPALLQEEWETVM
Kind of experiment: ratio of R0 IC50 to RG IC50, hPTHR.

For experiment [2], the target named is T1, human parathyroid hormone receptor …. As to the kind of experiment: competition vs 125I-PTH(1-34) + GTPgammaS, COS-7 membranes hPTHR (R0). The method, then:
(§1) Radioligand dissociation. These studies were performed as bulk reactions in 15 mL round-bottom polystyrene snap-cap tubes (Falcon) (total reaction volume=5.0 ml). Membranes and radioligand were pre-incubated for 90 minutes to allow complex formation; the dissociation phase was then initiated by the addition of an excess of the unlabeled analog of the radioligand (5×10⁻⁷ M final concentration), with or without GTPγS (5×10⁻⁵ M). Immediately prior to this addition (t=0), and at successive time-points thereafter, 0.2 ml aliquots (30,000 cpm) were withdrawn and immediately processed by vacuum filtration, as described above. Non-specific binding was determined in parallel reaction tubes containing the unlabeled analog of the radioligand (5×10⁻⁷ M) in both the pre-incubation and dissociation phases. The specifically bound radioactivity at each time point was calculated as a percent of the radioactivity specifically bound at t=0. Equilibrium competition binding and GTPγS inhibition. […] Membranes, tracer radioligand, and various concentrations of unlabeled ligands and/or GTPγS were incubated in the wells for 90 minutes, following which, the reaction plates were processed by rapid vacuum filtration to separate bound from free radioligand, as described above. […] For both radioligands, the non-specific binding was determined in reactions containing a saturating concentration of the unlabeled analog of the radioligand. The specifically bound radioactivity was calculated as a percent of the radioactivity specifically bound in the absence of a competing ligand or GTPγS.

The target is the same in experiment [3]. Kind of experiment: competition vs 125I-[Aib1,3,M]PTH(1-15), COS-7 membranes hPTHR + GsND (RG). The method, then: as §1
Experiment [4] has the same target. Kind of experiment: cell-based or functional assay.
For experiment [5] the target is unchanged. Kind of experiment: competition radioligand binding, human PTH1 receptor R0. The protocol: (§2) Binding Studies. Binding studies were performed using cell membranes as described (Dean et al., Mol Endocrinol 20(4):931-43 (2006)). […] Reactions contained a total membrane protein concentration of 20 to 100 μg/mL, and a total radioactivity concentration of approximately 150,000 cpm/ml. Unlabeled peptide ligands and/or GTPγS (Sigma-Aldrich Inc. St. Louis, Mo.) were added to the reactions as indicated. At the end of the reaction, bound and free radioligand were separated by vacuum filtration using a 96-well vacuum filter plate and vacuum filter apparatus (Multi-Screen system with Durapore HV, […] filters; Millipore Corp., Milford, Mass.); the air-dried filters were then detached from the plate and counted for gamma radioactivity using a gamma counter.
(§3) To assess the capacities of various unlabeled peptide ligands to bind to the G protein-uncoupled and G protein-coupled PTHR conformations (R⁰ and RG, respectively), membranes were prepared from transiently transfected COS-7 cells and the following assay conditions.

The target is the same in experiment [6]. As to the kind of experiment: ratio of R0 IC50 to RG IC50, human PTH1 receptor.
For experiment [7] the target is unchanged. As to the kind of experiment: competition radioligand binding, human PTH1 receptor RG. The method, then:
as §2, §3

Experiment [8] deals with T2, rat parathyroid hormone receptor (PTHR) (rat, UniProt P25961 27-591).
T2 sequence: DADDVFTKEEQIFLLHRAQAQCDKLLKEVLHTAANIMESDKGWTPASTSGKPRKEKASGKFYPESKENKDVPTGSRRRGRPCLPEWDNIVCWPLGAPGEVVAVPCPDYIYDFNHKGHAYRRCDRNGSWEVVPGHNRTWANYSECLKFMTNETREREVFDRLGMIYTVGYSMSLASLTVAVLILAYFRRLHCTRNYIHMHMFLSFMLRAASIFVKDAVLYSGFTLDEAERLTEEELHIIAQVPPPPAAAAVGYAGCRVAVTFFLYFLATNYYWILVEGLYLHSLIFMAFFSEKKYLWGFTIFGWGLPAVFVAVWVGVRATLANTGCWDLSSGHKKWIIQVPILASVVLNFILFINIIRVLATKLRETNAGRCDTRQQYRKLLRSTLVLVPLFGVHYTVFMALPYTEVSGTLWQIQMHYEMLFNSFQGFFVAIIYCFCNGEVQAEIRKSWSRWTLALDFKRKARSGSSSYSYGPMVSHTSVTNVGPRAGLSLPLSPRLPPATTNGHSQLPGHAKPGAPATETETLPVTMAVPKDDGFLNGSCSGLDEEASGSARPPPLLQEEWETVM
Kind of experiment: cell-based or functional assay.

Experiment [9] deals with T1, human parathyroid hormone receptor …. As to the kind of experiment: ratio of R0 IC50 to RG IC50, hPTHR. The source holds these as a separate data set.
Experiment [10] shares this target. As to the kind of experiment: competition radioligand binding, human PIR R0. The method, then:
as §2, §3

For experiment [11] the target is unchanged. Kind of experiment: competition radioligand binding, human PIR RG. The protocol:
as §2, §3

Experiment [12] has the same target. Kind of experiment: competition radioligand binding, hPTHR R0 conformation. The method, then: as §2, §3
Experiment [13] has the same target. As to the kind of experiment: competition radioligand binding, hPTHR RG conformation. The method, then:
as §2, §3

The target is the same in experiment [14]. As to the kind of experiment: screen, binding to human PIR R0 relative to parent PTHrP(1-28)NH; footnote not given.
For experiment [15] the target is unchanged. Kind of experiment: screen, binding to human PIR RG relative to parent PTHrP(1-28)NH; footnote not given.
Experiment [16] has the same target. As to the kind of experiment: cell-based or functional assay. This is another data set of the same source.

Square brackets hold non-standard residues; d marks the D form. Ends that are not written are not given here. hArg = N=C(N)NCCCC[C@H](N)C(=O)O; Nle = CCCC[C@H](N)C(=O)O; Aib = CC(C)(N)C(=O)O

B1: [Aib^1,3,Nle^8,Gln^10,homoarginine^11,Ala^12,Trp^14,Tyr^15]rPTH(1-15)NH2 (peptide)
peptide: [Aib]V[Aib]EIQL[Nle]HQ[hArg]AKWY-NH2
modifications: N-terminus assumed
SMILES: CCCC[C@H](NC(=O)[C@H](CC(C)C)NC(=O)[C@H](CCC(N)=O)NC(=O)[C@@H](NC(=O)[C@H](CCC(=O)O)NC(=O)C(C)(C)NC(=O)[C@@H](NC(=O)C(C)(C)N)C(C)C)[C@@H](C)CC)C(=O)N[C@@H](Cc1c[nH]cn1)C(=O)N[C@@H](CCC(N)=O)C(=O)N[C@@H](CCCCNC(=N)N)C(=O)N[C@@H](C)C(=O)N[C@@H](CCCCN)C(=O)N[C@@H](Cc1c[nH]c2ccccc12)C(=O)N[C@@H](Cc1ccc(O)cc1)C(N)=O
notes: also called [Aib^1,3,M]rPTH(1-15)NH2; [Aib^1,3,M]PTH(1-15)
Turning to B1, the “R0:RG” value in [1] is 1400. In addition, the half-inhibitory concentration (IC50) worked out at 1030 nM in [2] and 0.74 nM in experiment [3].

B2: [A1,3,23,Q10,R11]-PTH(1-34)OH (peptide)
peptide: AVAEIQLMHQRGKHLNSMERVEALRKKLQDVHNF-OH
notes: also called [A^1,A^3,A^23,Q^10,R^11]-PTH(1-34)OH; [A1,3,23,Q10,R11]-hPTH(1-34)
For B2, in experiment [4], the “cAMP in HKRK-B7 cells, EC50” value amounted to 1.76 nM and the “cAMP in HKRK-B7 cells, Max” value is 63.8 pm/well. Further, the IC50 in [5] came to 197 nM.

Regarding AVAEIQLMHQRAKWLNSMRAVEWLRKKLQDVHNF-OH (Mc = A1,3,12,Q10,R11,W14,R19) [A20,Mc-PTH(1-34)OH], the R0/RG ratio in experiment [6] was determined as 80. In addition, the results for the IC50 in [5] and in [7] were 31.9 nM and 0.4 nM, respectively.

For AVAEIQLMHQRAKWLNSMRRVEFLRKKLQDVHNF-OH (Mc = A1,3,12,Q10,R11,W14,R19) [F23,Mc-PTH(1-34)OH], the R0/RG ratio in [6] came out at 5. For the same molecule, the results for the half-inhibitory concentration (IC50) in experiment [5] and in experiment [7] were 1.2 nM and 0.23 nM, respectively.

B3: rPTH(1-34)NH2 (peptide)
peptide: AVSEIQLMHNLGKHLASVERMQWLRKKLQDVHNF-NH2
notes: also called r(rat)PTH(1-34)NH2; rat-PTH(1-34)
Consider B3, for which the “cAMP in ROS17/2.8 cells, EC50” value in experiment [8] is 0.021 nM. Further, in experiment [1], the “R0:RG” value amounted to 7. Besides, the IC50 in experiment [2] was 2.3 nM; in experiment [3], 0.34 nM.

With AVSEHQLMHNLGKHLASVERMQWLRKKLQDVHNF-NH2 [[His^5]rPTH(1-34)NH2], in experiment [1], the “R0:RG” value was determined as 138. Further, the figures for the IC50 in [2] and in experiment [3] were 26 nM and 0.19 nM, respectively.

Turning to AVSEHQLLHDKGKSIQDARRRAFLHKLI-NH2 [A18,22,K26-PTHrP(1-28)NH], the R0/RG selectivity in experiment [9] was 18100. Also, the 50% inhibitory concentration (IC50) came out at 1820 nM in experiment [10], 0.1 nM in [11], 1820 nM in [12] and 0.1 nM in experiment [13]. Further, the “human PIR R0 (% parent)” value in [14] worked out at 178 % parent. Moreover, the “human PIR RG (% parent)” value in experiment [15] worked out at 193 % parent.

Turning to AVSEHQLLHDKGKSIQDERRRAFLHKLI-NH2 [E18,A22,K26-PTHrP(1-28)NH], the R0/RG selectivity in experiment [9] stood at 38300. The half-inhibitory concentration (IC50) in experiment [10] was 9240 nM; in [11], 0.24 nM; in experiment [12] it was 9240 nM; in experiment [13], 0.24 nM. The “human PIR R0 (% parent)” value in experiment [14] stood at 68.8 % parent. Also, the “human PIR RG (% parent)” value in experiment [15] is 145 % parent.

For the molecule AVSEHQLLHDKGKSIQDERRRAFLLKLI-NH2 (also called EALK-PTHrP(1-28)) [E18,A22,L25,K26-PTHrP(1-28)NH], the R0/RG selectivity in [9] is 18300. Moreover, the IC50 amounted to 1740 nM in [10], 0.1 nM in [11], 1740 nM in experiment [12] and 0.1 nM in experiment [13].

B4: [His^5,Nle^8,21,Tyr^34]rPTH(1-34)NH2 (peptide)
peptide: AVSEHQL[Nle]HNLGKHLASVER[Nle]QWLRKKLQDVHNY-NH2
modifications: N-terminus assumed
SMILES: CCCC[C@H](NC(=O)[C@H](CC(C)C)NC(=O)[C@H](CCC(N)=O)NC(=O)[C@H](Cc1c[nH]cn1)NC(=O)[C@H](CCC(=O)O)NC(=O)[C@H](CO)NC(=O)[C@@H](NC(=O)[C@H](C)N)C(C)C)C(=O)N[C@@H](Cc1c[nH]cn1)C(=O)N[C@@H](CC(N)=O)C(=O)N[C@@H](CC(C)C)C(=O)NCC(=O)N[C@@H](CCCCN)C(=O)N[C@@H](Cc1c[nH]cn1)C(=O)N[C@@H](CC(C)C)C(=O)N[C@@H](C)C(=O)N[C@@H](CO)C(=O)N[C@H](C(=O)N[C@@H](CCC(=O)O)C(=O)N[C@@H](CCCNC(=N)N)C(=O)N[C@@H](CCCC)C(=O)N[C@@H](CCC(N)=O)C(=O)N[C@@H](Cc1c[nH]c2ccccc12)C(=O)N[C@@H](CC(C)C)C(=O)N[C@@H](CCCNC(=N)N)C(=O)N[C@@H](CCCCN)C(=O)N[C@@H](CCCCN)C(=O)N[C@@H](CC(C)C)C(=O)N[C@@H](CCC(N)=O)C(=O)N[C@@H](CC(=O)O)C(=O)N[C@H](C(=O)N[C@@H](Cc1c[nH]cn1)C(=O)N[C@@H](CC(N)=O)C(=O)N[C@@H](Cc1ccc(O)cc1)C(N)=O)C(C)C)C(C)C
notes: also called His^5-PTH(1-34); H^5-PTH(1-34)
For B4, in experiment [16], the “IP in COS-7/hPTHR cells, EC50” value was found to be 30 nM; the “IP in COS-7/hPTHR cells, Emax” value was 2230 cpm/well; the “cAMP in HKRK-B64 cells, EC50” value came to 2.7 nM; the “cAMP in HKRK-B64 cells, Emax” value turned out to be 59 picomole/well. In addition, in [1], the “R0:RG” value is 753. The IC50 in experiment [2] was found to be 71 nM. Moreover, in [3], the IC50 came out at 0.094 nM.
